Measured values published in patent US20240108748.

Biological target: T1, {Pra}KTFKC plasmin-cleavable peptide, as Cholesterol-KTFKC-PEG2000 (not fully specified)
T1 chain: KTFKC

B1: Human plasmin (protein)
chain: KVYLSECKTGNGKNYRGTMSKTKNGITCQKWSSTSPHRPRFSPATHPSEGLEENYCRNPDNDPQGPWCYTTDPEKRYDYCDILECEEECMHCSGENYDGKISKTMSGLECQAWDSQSPHAHGYIPSKFPNKNLKKNYCRNPDRELRPWCFTTDPNKRWELCDIPRCTTPPPSSGPTYQCLKGTGENYRGNVAVTVSGHTCQHWSAQTPHTHNRTPENFPCKNLDENYCRNPDGKRAPWCHTTNSQVRWEYCKIPSCDSSPVSTEQLAPTAPPELTPVVQDCYHGDGQSYRGTSSTTTTGKKCQSWSSMTPHRHQKTPENYPNAGLTMNYCRNPDADKGPWCFTTDPSVRWEYCNLKKCSGTEASVVAPPPVVLLPDVETPSEEDCMFGNGKGYRGKRATTVTGTPCQDWAAQEPHRHSIFTPETNPRAGLEKNYCRNPDGDVGGPWCYTTNPRKLYDYCDVPQCAAPSFDCGKPQVEPKKCPGRVVGGCVAHPHSWPWQVSLRTRFGMHFCGGTLISPEWVLTAAHCLEKSPRPSSYKVILGAHQEVNLEPHVQEIEVSRLFLEPTRKDIALLKLSSPAVITDKVIPACLPSPNYVVADRTECFITGWGETQGTFGAGLLKEAQLPVIENKVCNRYEFLNGRVQSTELCAGHLAGGTDSCQGDSGGPLVCFEKDKYILQGVTSWGLGCARPNKPGVYVRVSRFVTWIEGVMRNN
- Annexin V staining of immobilized PPNs after plasmin incubation (phosphatidylserine exposure after removal of the PEG cloak): PPNs incubated with ≥50 nM human plasmin had increased Annexin V staining
